Read-outs that look alike come from different tables or passages of the source. Values belong to the binder of their own block, whether it stands above or below them.
Key:
IFNAR1 [1] = target: T1, IFNAR1 (human, UniProt P17181 28-557); assay: cell-based or functional assay
T1 sequence (looked up): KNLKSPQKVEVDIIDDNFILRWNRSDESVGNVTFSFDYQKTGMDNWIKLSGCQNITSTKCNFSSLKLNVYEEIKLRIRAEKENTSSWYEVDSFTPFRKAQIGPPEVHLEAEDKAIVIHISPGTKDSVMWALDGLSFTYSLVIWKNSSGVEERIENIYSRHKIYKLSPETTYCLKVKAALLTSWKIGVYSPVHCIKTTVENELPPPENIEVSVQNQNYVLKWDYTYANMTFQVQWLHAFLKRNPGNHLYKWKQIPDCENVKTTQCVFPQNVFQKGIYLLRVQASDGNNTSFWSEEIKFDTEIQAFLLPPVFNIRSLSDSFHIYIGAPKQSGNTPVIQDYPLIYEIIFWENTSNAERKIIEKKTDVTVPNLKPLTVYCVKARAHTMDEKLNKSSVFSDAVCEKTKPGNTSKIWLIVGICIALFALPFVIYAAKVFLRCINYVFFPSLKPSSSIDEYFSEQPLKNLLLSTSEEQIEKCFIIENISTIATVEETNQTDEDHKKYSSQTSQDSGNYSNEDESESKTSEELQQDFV

IFNAR1 [2] = target: T1, IFNAR1; assay: cell-based or functional assay; remark: listed apart in the source
[3] = target: T2, recombinant human BAFF (R&D cat: 7537-BF-025/CF) (human, UniProt Q9Y275 134-285); assay: cell-based or functional assay
[4] = target: T3, recombinant human APRIL (R&D cat: 5860-AP-010/CF) (human, UniProt O75888 105-250, limits assumed); assay: cell-based or functional assay
T3 sequence (looked up): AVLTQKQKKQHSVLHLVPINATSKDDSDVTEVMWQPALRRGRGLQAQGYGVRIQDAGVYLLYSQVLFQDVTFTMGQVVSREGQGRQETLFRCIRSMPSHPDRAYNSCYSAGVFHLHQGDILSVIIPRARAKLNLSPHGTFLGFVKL

[5] = target: T2, recombinant human BAFF (R&D cat: …); assay: cell-based or functional assay; remark: listed apart in the source
[6] = target: T3, recombinant human APRIL (R&D cat: …); assay: cell-based or functional assay; remark: listed apart in the source
[7] = target: T4, APRIL (Acro Biosystems, Cat: APL-H52D1) (UniProt O75888 115-250, limits assumed); assay: ELISA, APRIL coated at 1 ug/mL, anti-human Fc-HRP, OD450
T4 construct: also called ARPIL
T4 sequence (looked up): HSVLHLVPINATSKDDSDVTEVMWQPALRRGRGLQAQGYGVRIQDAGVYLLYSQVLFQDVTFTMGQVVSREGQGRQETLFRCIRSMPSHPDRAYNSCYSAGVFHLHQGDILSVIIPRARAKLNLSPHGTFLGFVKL
Experimental: The capabilities of fusion proteins B606401, B637302, B746201, and B805201 to bind to BAFF and APRIL were assessed by ELISA as follows:
(§1) BAFF (PeproTech, Cat: 310-13) or ARPIL (Acro Biosystems, Cat: APL-H52D1) was diluted to 1 μg/mL with PBS, and a 96-well plate was coated with the dilution overnight at 4° C. The plate was washed with PBST and blocked with Blocking Buffer (PBST containing 1% BSA) at 37° C. for 1 h. The plate was tapped. The test antibodies were diluted with Blocking Buffer. Incubation was performed at 37° C. for 1.5 h. The plate was washed with PBST. An HRP-mouse anti-human Fc antibody (GenScript, Cat: A01854-200) was diluted with Blocking Buffer. Incubation was performed at 37° C. for 40 min. The plate was washed with PBST. 100 μL of TMB substrate solution (Biopanda, Cat: TMB-S-003) was added, and color development was performed at 37° C. for 3 min. 100 μL of ELISA stop solution (Solarbio, Cat: C1058) was added. OD450 was measured.

[8] = target: T4, APRIL (Acro Biosystems, Cat: APL-H52D1); assay: as above; remark: listed apart in the source
Experimental: as §1, with “The capabilities of B613301, B613302, and B613303, which are fusion proteins of anifrolumab and TACI-BCMA, to bind to BAFF and APRIL were assessed by ELISA as follows: [0548] BAFF (PeproTech,” for “BAFF (PeproTech,”, “96-well plate (Costar, Cat: 3590) was coated” for “96-well plate was coated”

IC50, inhibition of IFN-alpha-induced in vitro differentiation of B cells into plasma cells (CD27+ CD38+) (IFNAR1 [1]): 12.7 nM | IC50 (nM), inhibition of the activity of type I interferons (IFN-beta, HEK-Blue IFN-alpha/beta reporter cells) (IFNAR1 [2]): 1.53 nM
B1: Anifrolumab (antibody, human IgG1, kappa, V domains shown)
VH: EVQLVQSGAEVKKPGESLKISCKGSGYIFTNYWIAWVRQMPGKGLESMGIIYPGDSDIRYSPSFQGQVTISADKSITTAYLQWSSLKASDTAMYYCARHDIEGFDYWGRGTLVTVSS
VL: EIVLTQSPGTLSLSPGERATLSCRASQSVSSSFFAWYQQKPGQAPRLLIYGASSRATGIPDRLSGSGSGTDFTLTITRLEPEDFAVYYCQQYDSSAITFGQGTRLEIKR

IC50, inhibition of IFN-alpha-induced in vitro differentiation of B cells into plasma cells (CD27+ CD38+) (IFNAR1 [1]): 10.8 nM | IC50 (nM), inhibition of the activity of type I interferons (IFN-beta, HEK-Blue IFN-alpha/beta reporter cells) (IFNAR1 [2]): 1.59 nM | Flow cytometry proliferating B cell proportion (%), mean value, BAFF-induced, drug at 10 nM (IgG1: 40.15) [3]: 23.8% | Flow cytometry proliferating B cell proportion (%), mean value, BAFF-induced, drug at 100 nM (IgG1: 40.60) [3]: 22.2% | Flow cytometry proliferating B cell proportion (%), mean value, BAFF-induced, drug at 1000 nM (IgG1: 33.97) [3]: 10.9% | Flow cytometry proliferating B cell proportion (%), mean value, APRIL-induced, drug at 4.12 nM (IgG1: 55.30) [4]: 50.6% | Flow cytometry proliferating B cell proportion (%), mean value, APRIL-induced, drug at 12.35 nM (IgG1: 54.80) [4]: 50.7% | Flow cytometry proliferating B cell proportion (%), mean value, APRIL-induced, drug at 37.04 nM (IgG1: 56.63) [4]: 53.6% | Flow cytometry proliferating B cell proportion (%), mean value, APRIL-induced, drug at 111.11 nM (IgG1: 55.83) [4]: 51.5% | Flow cytometry proliferating B cell proportion (%), mean value, APRIL-induced, drug at 333.33 nM (IgG1: 56.27) [4]: 48% | Flow cytometry proliferating B cell proportion (%), mean value, APRIL-induced, drug at 1000.00 nM (IgG1: 53.27) [4]: 33.6% | CD27+ CD38+ plasma cell count, mean value, BAFF + APRIL-induced (both ligands together), drug at 100 nM (IgG1: 2496) [5]: 482 cells | CD27+ CD38+ plasma cell count, mean value, BAFF + APRIL-induced (both ligands together), drug at 1000 nM (IgG1: 2279) [5]: 137 cells | CD27+ CD38+ plasma cell count, mean value, BAFF + APRIL-induced (both ligands together), drug at 10 nM (IgG1: 2687) [6]: 563 cells | CD27+ CD38+ plasma cell count, mean value, BAFF + APRIL-induced (both ligands together), drug at 100 nM (IgG1: 2496) [6]: 482 cells | CD27+ CD38+ plasma cell count, mean value, BAFF + APRIL-induced (both ligands together), drug at 1000 nM (IgG1: 2279) [6]: 137 cells | EC50 [7]: 0.0819 nM | Emax [7]: 2.9
B2: B637302 (other)
heavy: EVQLVQSGAEVKKPGESLKISCKGSGYIFTNYWIAWVRQMPGKGLESMGIIYPGDSDIRYSPSFQGQVTISADKSITTAYLQWSSLKASDTAMYYCARHDIEGFDYWGRGTLVTVSSASTKGPSVFPLAPSSKSTSGGTAALGCLVKDYFPEPVTVSWNSGALTSGVHTFPAVLQSSGLYSLSSVVTVPSSSLGTQTYICNVNHKPSNTKVDKRVEPKSCDKTHTCPPCPAPEFEGGPSVFLFPPKPKDTLMISRTPEVTCVVVDVSHEDPEVKFNWYVDGVEVHNAKTKPREEQYNSTYRVVSVLTVLHQDWLNGKEYKCKVSNKALPASIEKTISKAKGQPREPQVYTLPPSRDELTKNQVSLTCLVKGFYPSDIAVEWESNGQPENNYKTTPPVLDSDGSFFLYSKLTVDKSRWQQGNVFSCSVMHEALHNHYTQKSLSLSPGK
light: EIVLTQSPGTLSLSPGERATLSCRASQSVSSSFFAWYQQKPGQAPRLLIYGASSRATGIPDRLSGSGSGTDFTLTITRLEPEDFAVYYCQQYDSSAITFGQGTRLEIKRTVAAPSVFIFPPSDEQLKSGTASVVCLLNNFYPREAKVQWKVDNALQSGNSQESVTEQDSKDSTYSLSSTLTLSKADYEKHKVYACEVTHQGLSSPVTKSFNRGECGGGGSGGGGSMLQMAGQCSQNEYFDSLLHACIPCQLRCSSNTPPLTCQRYCSTSCREEQGEFYDHLLRDCISCASICGQHPKQCAAFCE
notes: Fusion protein of anifrolumab, TACI-19-16 and BCMA-ECD-2 (C-terminus of the light chain)

EC50 [8]: 0.151 nM | Emax [8]: 2.33
B3: B613303 (other)
heavy: B2 heavy
light: EIVLTQSPGTLSLSPGERATLSCRASQSVSSSFFAWYQQKPGQAPRLLIYGASSRATGIPDRLSGSGSGTDFTLTITRLEPEDFAVYYCQQYDSSAITFGQGTRLEIKRTVAAPSVFIFPPSDEQLKSGTASVVCLLNNFYPREAKVQWKVDNALQSGNSQESVTEQDSKDSTYSLSSTLTLSKADYEKHKVYACEVTHQGLSSPVTKSFNRGECGGGGSGGGGSSRVDQEERFPQGLWTGVAMRSCPEEQYWDPLLGTCMSCKTICNHQSQRTCAAFCRSLSCRKEQGKFYDHLLRDCISCASICGQHPKQCAYFCENKLRSPVNLPPELMLQMAGQCSQNEYFDSLLHACIPCQLRCSSNTPPLTCQRYCNASVTNSVKGTNA
notes: Fusion protein of anifrolumab and TACI-BCMA

IC50, inhibition of IFN-alpha-induced in vitro differentiation of B cells into plasma cells (CD27+ CD38+) (IFNAR1 [1]): 17.4 nM | IC50 (nM), inhibition of the activity of type I interferons (IFN-beta, HEK-Blue IFN-alpha/beta reporter cells) (IFNAR1 [2]): 1.94 nM | Flow cytometry proliferating B cell proportion (%), mean value, BAFF-induced, drug at 10 nM (IgG1: 40.15) [3]: 28.1% | Flow cytometry proliferating B cell proportion (%), mean value, BAFF-induced, drug at 100 nM (IgG1: 40.60) [3]: 25.3% | Flow cytometry proliferating B cell proportion (%), mean value, BAFF-induced, drug at 1000 nM (IgG1: 33.97) [3]: 17.9% | Flow cytometry proliferating B cell proportion (%), mean value, APRIL-induced, drug at 4.12 nM (IgG1: 55.30) [4]: 52% | Flow cytometry proliferating B cell proportion (%), mean value, APRIL-induced, drug at 12.35 nM (IgG1: 54.80) [4]: 52.9% | Flow cytometry proliferating B cell proportion (%), mean value, APRIL-induced, drug at 37.04 nM (IgG1: 56.63) [4]: 53.6% | Flow cytometry proliferating B cell proportion (%), mean value, APRIL-induced, drug at 111.11 nM (IgG1: 55.83) [4]: 53.1% | Flow cytometry proliferating B cell proportion (%), mean value, APRIL-induced, drug at 333.33 nM (IgG1: 56.27) [4]: 50.6% | Flow cytometry proliferating B cell proportion (%), mean value, APRIL-induced, drug at 1000.00 nM (IgG1: 53.27) [4]: 40.3% | CD27+ CD38+ plasma cell count, mean value, BAFF + APRIL-induced (both ligands together), drug at 100 nM (IgG1: 2496) [5]: 549 cells | CD27+ CD38+ plasma cell count, mean value, BAFF + APRIL-induced (both ligands together), drug at 1000 nM (IgG1: 2279) [5]: 426 cells | CD27+ CD38+ plasma cell count, mean value, BAFF + APRIL-induced (both ligands together), drug at 10 nM (IgG1: 2687) [6]: 654 cells | CD27+ CD38+ plasma cell count, mean value, BAFF + APRIL-induced (both ligands together), drug at 100 nM (IgG1: 2496) [6]: 549 cells | CD27+ CD38+ plasma cell count, mean value, BAFF + APRIL-induced (both ligands together), drug at 1000 nM (IgG1: 2279) [6]: 426 cells | EC50 [7]: 0.607 nM | Emax [7]: 2.81
B4: B606401 (other)
heavy: B2 heavy
light: EIVLTQSPGTLSLSPGERATLSCRASQSVSSSFFAWYQQKPGQAPRLLIYGASSRATGIPDRLSGSGSGTDFTLTITRLEPEDFAVYYCQQYDSSAITFGQGTRLEIKRTVAAPSVFIFPPSDEQLKSGTASVVCLLNNFYPREAKVQWKVDNALQSGNSQESVTEQDSKDSTYSLSSTLTLSKADYEKHKVYACEVTHQGLSSPVTKSFNRGECGGGGSGGGGSSTSCREEQGEFYDHLLRDCISCASICGQHPKQCAAFCE
notes: Fusion protein of anifrolumab and TACI-19-16 (C-terminus of the light chain)
